Measured values: article doi:10.1101/2023.12.27.573415 (bioRxiv, 2023)

Assays:
[1] = biological target: 441-residue human 2N4R tau (human, UniProt P10636-8 1-441); assay: NMR titration
FKBP51 = biological target: T1, FKBP51 (UniProt Q13451 1-457); assay: NMR titration
T1 sequence: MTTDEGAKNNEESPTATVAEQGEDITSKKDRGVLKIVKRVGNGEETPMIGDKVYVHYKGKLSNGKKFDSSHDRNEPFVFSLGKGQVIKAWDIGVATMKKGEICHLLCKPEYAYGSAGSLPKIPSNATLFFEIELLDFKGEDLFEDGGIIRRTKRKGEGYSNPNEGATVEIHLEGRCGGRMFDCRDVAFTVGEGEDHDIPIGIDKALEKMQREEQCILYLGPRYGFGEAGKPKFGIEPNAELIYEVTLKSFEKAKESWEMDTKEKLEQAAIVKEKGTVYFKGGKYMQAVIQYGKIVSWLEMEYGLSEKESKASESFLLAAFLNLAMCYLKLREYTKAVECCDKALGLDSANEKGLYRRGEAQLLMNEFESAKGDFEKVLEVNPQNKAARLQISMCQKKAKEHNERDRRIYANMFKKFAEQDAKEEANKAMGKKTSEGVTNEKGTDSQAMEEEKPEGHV

B1: p23 (human, wild type) (natural protein)
chain: MQPASAKWYDRRDYVFIEFCVEDSKDVNVNFEKSKLTFSCLGGSDNFKHLNEIDLFHCIDPNDSKHKRTDRSILCCLRKGESGQSWPRLTKERAKLNWLSVDFNNWKDWEDDSDEDMSNFDRFSEMMNNMGGDEDVDLPEVDGADDDSQDSDDEKMPDLE
- binding result [1]: binds

B2: truncated p23 (1-119) (domain or fragment)
chain: MQPASAKWYDRRDYVFIEFCVEDSKDVNVNFEKSKLTFSCLGGSDNFKHLNEIDLFHCIDPNDSKHKRTDRSILCCLRKGESGQSWPRLTKERAKLNWLSVDFNNWKDWEDDSDEDMSN
- binding result (FKBP51): binds
